± gives the uncertainty stated by the source.
B1: 1-phosphatidylinositol 4,5-bisphosphate phosphodiesterase gamma-2, residues 772 to 827; numbered along this chain, P16885 (parent)
chain: RTVKALYDYKAKRSDELSFCRGALIHNVSKEPGGWWKGDYGTRIQQYFPSNYVEDI

Variants of: B1
Experiment: abundance fitness (aPCA) (normalised: wild type 0, dead -1); higher = more abundant; growth selection in yeast, the domain comes from the species named
Settings: Homo sapiens

Abundance fitness of substitutions, site by site:
S29: F 0.151 ± 0.28
G34: K 0.024 ± 0.12; H -0.101 ± 0.06; D -0.085 ± 0.09; I -0.143 ± 0.15; E -0.06 ± 0.096; C -0.284 ± 0.14; L -0.083 ± 0.067; M -0.11 ± 0.094; A -0.074 ± 0.06
P32: Q 0.022 ± 0.11; D -0.087 ± 0.14; E 0.126 ± 0.082; V -0.315 ± 0.084; A 0.056 ± 0.073; K -0.229 ± 0.15; R -0.166 ± 0.085; N 0.256 ± 0.3; S -0.011 ± 0.08; G -0.115 ± 0.044; L -0.014 ± 0.078; Y -0.278 ± 0.31; M 0.093 ± 0.099; W -0.406 ± 0.058; C -0.275 ± 0.24; F -0.247 ± 0.26
N27: R -0.549 ± 0.062; K -0.625 ± 0.06; A -0.56 ± 0.12; H -0.486 ± 0.35; G -0.654 ± 0.067; F -1.05 ± 0.47; M -0.695 ± 0.28; S -0.473 ± 0.12; W -0.956 ± 0.32; C -0.722 ± 0.14; E -0.164 ± 0.15; I -0.748 ± 0.4; Q -0.13 ± 0.17; L -0.974 ± 0.24; V -0.958 ± 0.28
K30: G -0.576 ± 0.23; E -0.042 ± 0.072; D -0.214 ± 0.11; Q -0.208 ± 0.081; Y 0.039 ± 0.086; L -0.169 ± 0.057; F -0.21 ± 0.062; C -0.077 ± 0.18; T -0.245 ± 0.11; N -0.167 ± 0.1; H -0.054 ± 0.086; I 0.245 ± 0.089; W -0.293 ± 0.17; R -0.05 ± 0.093; P 0.246 ± 0.094; M -0.092 ± 0.082; V -0.047 ± 0.059; A -0.195 ± 0.057
V28: N -0.671 ± 0.49; C -0.568 ± 0.19; A -0.873 ± 0.36; R -0.788 ± 0.085; T -0.486 ± 0.23; K -0.623 ± 0.35; M -1.08 ± 0.15; W -0.793 ± 0.17; S -0.836 ± 0.25; D -0.821 ± 0.47; Q -0.762 ± 0.3
G33: H -0.277 ± 0.15; N -0.102 ± 0.067; F -0.203 ± 0.17; W -0.258 ± 0.092; P -0.699 ± 0.12; Q -0.556 ± 0.34; K -0.781 ± 0.47; S -0.114 ± 0.049; A -0.547 ± 0.18; L -0.408 ± 0.07; Y -0.293 ± 0.064; C -0.108 ± 0.087; T -0.421 ± 0.15; V -0.82 ± 0.2; R -0.434 ± 0.061; E -0.274 ± 0.21; D -0.168 ± 0.055
E31: M -0.009 ± 0.1; Q -0.071 ± 0.13; I -0.174 ± 0.12; D -0.22 ± 0.086; W 0.036 ± 0.15; A -0.1 ± 0.065; P -0.291 ± 0.12; S 0.002 ± 0.073; C -0.069 ± 0.1; L -0.015 ± 0.072; T 0.141 ± 0.088; V -0.099 ± 0.073; F 0.016 ± 0.083; G 0.065 ± 0.07; N -0.169 ± 0.2; H -0.265 ± 0.14; K -0.135 ± 0.11; Y -0.05 ± 0.069
I25: W -0.723 ± 0.31; V -0.481 ± 0.078; F -0.598 ± 0.3; S -1 ± 0.34; L -0.386 ± 0.11; Q -0.921 ± 0.32; A -0.741 ± 0.16; R -0.976 ± 0.47
H26: Y -0.121 ± 0.12; A -0.113 ± 0.044; I -0.084 ± 0.13; E -0.002 ± 0.087; K -0.221 ± 0.14; L -0.081 ± 0.082; P -1.1 ± 0.24; Q -0.005 ± 0.086; F 0.012 ± 0.14; W -0.072 ± 0.08; V -0.035 ± 0.07; M -0.069 ± 0.096; T 0.034 ± 0.11; C -0.087 ± 0.12; D -0.173 ± 0.12; N -0.198 ± 0.094; S 0.01 ± 0.073; G -0.43 ± 0.093
A23: R -0.698 ± 0.086; H -0.471 ± 0.27; S -0.154 ± 0.093; C -0.092 ± 0.16; D 0.096 ± 0.09; F -0.314 ± 0.23; Y -0.059 ± 0.15; Q -0.595 ± 0.19; W -0.858 ± 0.32; E -0.052 ± 0.088; N -0.131 ± 0.08; I -0.613 ± 0.23; K -0.745 ± 0.38; V -0.296 ± 0.083; T -0.065 ± 0.09
L24: R -0.299 ± 0.075; M -0.207 ± 0.1; H -0.335 ± 0.22; E -0.083 ± 0.063; A -0.659 ± 0.12; N -0.212 ± 0.14; V -0.046 ± 0.075; D -0.781 ± 0.47; W -0.359 ± 0.12; P -0.818 ± 0.072; T -0.222 ± 0.11; G -0.837 ± 0.16; C -0.044 ± 0.099; Q -0.267 ± 0.076; Y 0.041 ± 0.13; K -0.215 ± 0.058
G22: S -0.681 ± 0.14; W -0.811 ± 0.092; Y -0.856 ± 0.46; T -0.872 ± 0.095; V -0.911 ± 0.24

Source: the Human Domainome abundance scans (Beltran et al. 2025)
